Our source for the Kd values is publication PMC7308506 (2020).

Test [1] concerns the target T1, activated factor XII.
T1 chain 1: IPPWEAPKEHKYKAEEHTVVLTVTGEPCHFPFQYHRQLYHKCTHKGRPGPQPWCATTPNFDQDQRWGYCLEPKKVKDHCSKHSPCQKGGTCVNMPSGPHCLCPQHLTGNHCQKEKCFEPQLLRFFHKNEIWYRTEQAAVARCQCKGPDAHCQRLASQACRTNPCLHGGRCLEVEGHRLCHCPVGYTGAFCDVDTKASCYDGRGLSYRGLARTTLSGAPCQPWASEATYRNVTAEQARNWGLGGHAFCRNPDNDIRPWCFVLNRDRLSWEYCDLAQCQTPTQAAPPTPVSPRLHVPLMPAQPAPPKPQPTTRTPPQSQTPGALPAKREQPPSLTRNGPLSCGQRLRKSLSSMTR
T1 chain 2: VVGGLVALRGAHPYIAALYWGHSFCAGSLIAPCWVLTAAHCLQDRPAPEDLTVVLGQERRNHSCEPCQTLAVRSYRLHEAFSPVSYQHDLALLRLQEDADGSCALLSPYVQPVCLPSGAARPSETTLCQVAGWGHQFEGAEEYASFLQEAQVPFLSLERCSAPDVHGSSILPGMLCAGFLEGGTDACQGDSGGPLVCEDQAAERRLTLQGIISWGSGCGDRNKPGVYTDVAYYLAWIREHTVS
The test is described as follows: SPR.

For test [2], the target named is kallikrein. The test is described as follows: SPR.

B1: LCTX-F2 (peptide)
chain: GAKACTPRLHDCSHDRHSCCRGELFKDVCYCFYPEGEDKTEVCSCQQPKSHKYIEKVVDKTKTLVG
Turning to B1, the dissociation constant Kd (usually the equilibrium constant for the complex coming apart) in test [1] was 7.2 nM; in test [2], 4.6 nM.
